Data published in doi:10.1101/2022.10.06.511078.

Key:
[1] = molecular target: Ubiquitin carboxyl-terminal hydrolase isozyme L1 (human) (UniProt P09936); assay: SPR
Cofilin-1 (human) = Cofilin-1 (human) (UniProt P23528); assay: SPR
Cofilin-1 (human), sequence (P23528 whole entry): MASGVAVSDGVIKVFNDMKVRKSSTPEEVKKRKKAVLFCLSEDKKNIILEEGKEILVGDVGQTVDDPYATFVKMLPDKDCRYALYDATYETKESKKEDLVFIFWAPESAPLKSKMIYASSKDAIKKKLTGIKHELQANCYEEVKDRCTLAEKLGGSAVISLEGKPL

Ubiquitin carboxyl-terminal hydrolase isozyme L1 (human), sequence (P09936 whole entry): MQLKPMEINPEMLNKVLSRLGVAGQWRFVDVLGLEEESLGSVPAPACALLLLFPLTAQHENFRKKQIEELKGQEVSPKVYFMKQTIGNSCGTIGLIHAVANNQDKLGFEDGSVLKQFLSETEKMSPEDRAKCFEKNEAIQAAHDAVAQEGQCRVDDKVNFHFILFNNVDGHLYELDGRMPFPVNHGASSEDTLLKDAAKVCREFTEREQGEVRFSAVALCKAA

## α-synuclein oligomer (from UniProt P37840 1-140) (natural protein)
[1]
  Kd: 600 nM
Cofilin-1 (human)
  Kd: 290 nM
